Results on 147 variants are retold here after the RNAGym collection of RNA variant scans (doi:10.7554/elife.80360).

The labels stand for the following.
B1: HDV Ribozyme (parent)
chain: GGCCGGCAUGGUCCCAGCCUCCUCGCUGGCGCCGGCUGGGCAACAUUCCGAGGGGACCGUCCCCUCGGUAAUGGCGAAUGGGACCCA

In the data set the parent is B1. Briefly: self-cleavage, relative activity (ratio to wild type); higher = more cleavage; co-transcriptional.
For G6A G73C, the self-cleavage was determined as 0.312.
With A8U G67U, the self-cleavage came to 0.898.
As for G17U U27C, the figure is 0.308; as for A8C A16C, 1.07.
Regarding C49G U60G, the self-cleavage turned out to be 0.762.
With C44A U69G, the self-cleavage is 0.609.
As for G38U G52U, the figure is 0.273.
Regarding A51G C61A, the self-cleavage is 0.954.
The value for A16G A87U was 0.939.
On to G25C C44A, for which the self-cleavage was found to be 0.185.
With U9G G17U, the self-cleavage came out at 0.415.
With G52A C62A, the self-cleavage stood at 0.732.
For C18A G55U, the self-cleavage was found to be 0.197.
As to A8G G52C, the self-cleavage is 1.26.
As for G6U C61U, the self-cleavage came out at 0.525.
As for G5C A8C, the figure is 0; as for G2C G59U, 0.0343.
C14G C41A: the self-cleavage worked out at 0.776.
As for C75G C86U, the figure is 0.156; as for A45U G76C, 0.689.
Consider G10C U20G, for which the self-cleavage came to 0.151.
As for C36A A70G, the figure is 0.119; as for A56U A87G, 1.02.
As for C14U G52U, the figure is 1.04.
With A8C C36U, the self-cleavage turned out to be 0.712.
As for G55C U69A, the self-cleavage was 0.973.
G39C A45G: the self-cleavage amounted to 0.0923.
Turning to C3G U12C, the self-cleavage is 0.
The value for U72C A83U was 0.128.
With C32A C49G, the self-cleavage came to 0.222.
Take U20C G38U: the self-cleavage amounted to 0.
C24A U46G: the self-cleavage worked out at 0.554.
As for C3A A87G, the figure is 0.378; as for U12C, 0.399.
On to U12A U37G, for which the self-cleavage stood at 0.0536.
The value for G6C G25U was 0.166.
Turning to G5U G82A, the self-cleavage was determined as 0.185.
For the variant C63G A78G, the self-cleavage amounted to 0.54.
With G35U G81U, the self-cleavage was determined as 0.156.
With G35U G81A, the self-cleavage was found to be 0.108.
The value for U47G G76U was 1.22; that for C32U U47A was 0.943; that for U72C C84G was 0.369.
For C32A C44G, the self-cleavage was determined as 0.107.
Regarding G1A G5U, the self-cleavage was determined as 0.101.
As for U27G A78U, the self-cleavage came out at 0.0831.
For the variant A43U G74C, the self-cleavage came to 0.125.
As for C63A C85G, the self-cleavage worked out at 0.849.
Take C14A A56U: the self-cleavage was 0.688.
The value for C41U U46A was 0.942.
Take U9G A42U: the self-cleavage stood at 0.587.
In the case of C33U G73C, the self-cleavage was 0.31.
Consider C33U G76C, for which the self-cleavage is 1.07.
Take U46G C62A: the self-cleavage turned out to be 0.575.
The value for A8C A87G was 0.674; that for A42G G54U was 0.502.
With C57G A83G, the self-cleavage worked out at 0.917.
With C14G G80C, the self-cleavage was determined as 0.0723.
Regarding C22G C41A, the self-cleavage turned out to be 0.0346.
Consider C21A U60C, for which the self-cleavage was 0.0739.
As for U9A C41A, the figure is 0.831; as for U12C G52C, 0.287.
Regarding C19G U69A, the self-cleavage worked out at 0.
For the variant A8C G28C, the self-cleavage was 0.
Take C15A G35C: the self-cleavage came out at 0.138.
As for G1U G5U, the figure is 0.402; as for A16C G34A, 0.18.
For U65G A78C, the self-cleavage worked out at 0.119.
On to C61G C84A, for which the self-cleavage came out at 0.708.
As to G38U G74C, the self-cleavage is 0.115.
With C19U G34C, the self-cleavage turned out to be 0.0346.
On to G11U G81U, for which the self-cleavage worked out at 0.138.
The value for U46G U60C was 0.665.
On to C32G G76A, for which the self-cleavage turned out to be 0.271.
G2U C85G: the self-cleavage amounted to 0.0966.
The value for C66A U79C was 0.582; that for C7A C84G was 0.128; that for U23C C24U was 0.57.
With G17U G82U, the self-cleavage is 0.361.
The value for C7G C18U was 0.0639.
As for A51U G80C, the self-cleavage came to 0.208.
As for U9G U20C, the figure is 0.
In the case of G5U C49A, the self-cleavage is 0.415.
A51C A56U: the self-cleavage came out at 1.05.
Regarding C24A G28A, the self-cleavage amounted to 0.208.
As for G5C G53A, the self-cleavage stood at 0.162.
On to U60A G67A, for which the self-cleavage worked out at 0.95.
Turning to C3A A56U, the self-cleavage came to 0.71.
As for C3A A70G, the figure is 0.686; as for C18U C19A, 0.0906.
As for G38U C44G, the figure is 0.0652; as for A45G G54A, 0.814.
Regarding G35A G80A, the self-cleavage turned out to be 0.196.
The value for G29A U65G was 0.166; that for C32U A42U was 0.591.
As for A8C G54U, the figure is 0.618; as for G6A A78C, 0.0615; as for G40U U46C, 0.227.
As to C32U C36A, the self-cleavage was 0.17.
Consider C32U U72C, for which the self-cleavage worked out at 0.532.
Take U9A U37G: the self-cleavage was 0.208.
For the variant C33U A83C, the self-cleavage came to 0.242.
Take G2U C57G: the self-cleavage worked out at 0.109.
Consider C36G C66A, for which the self-cleavage came to 0.162.
Consider A45U C84G, for which the self-cleavage was 0.332.
Turning to C64G G76C, the self-cleavage stood at 0.702.
The value for G52U G74U was 0.629; that for C21U U47A was 0.363.
Take C49U G55C: the self-cleavage is 0.906.
As for G11U C30G, the figure is 0.0767; as for C48U G55U, 1.11; as for U20G G67C, 0.554.
With C33U G82U, the self-cleavage was 0.266.
As for C44G G50U, the self-cleavage was 0.767.
With G2U U9A, the self-cleavage amounted to 0.0237.
Consider A78G G81A, for which the self-cleavage stood at 0.115.
As for C3A G59U, the figure is 0.755; as for C7U C36G, 0.104; as for C3A C61A, 0.596.
For the variant G76C C85U, the self-cleavage is 1.14.
Turning to A51C A77U, the self-cleavage is 0.429.
C24G G50A: the self-cleavage came to 0.104.
For the variant G6C C36A, the self-cleavage worked out at 0.095.
With C4G G74A, the self-cleavage is 0.0639.
With G31A C66G, the self-cleavage was 0.379.
For the variant U9A U12A, the self-cleavage amounted to 0.361.
As for C19U C44A, the self-cleavage stood at 0.
For G11U U46C, the self-cleavage is 0.135.
In the case of C14A C58G, the self-cleavage was determined as 0.762.
The value for A16C C18U was 0.375; that for U46A G50A was 0.658; that for C22G U37A was 0.0845.
On to G38A A70U, for which the self-cleavage is 0.148.
The value for G2A C64U was 0.18; that for C4U C21A was 0.
For C14A G50C, the self-cleavage was found to be 0.639.
The value for C24G C41G was 0.
The value for C14G G52C was 0.519; that for G82C C84U was 0.166.
Consider C19G C44G, for which the self-cleavage came out at 0.0959.
With G35A A42C, the self-cleavage was 0.277.
As to U27G U69G, the self-cleavage is 0.798.
G1U G40A: the self-cleavage stood at 0.426.
As for G17C C58A, the figure is 0.388; as for A42G A77C, 0.0723; as for C19A G80C, 0.0665.
The value for G52C C86U was 1.2.
